This data set concerns the molecule itself. The data set can be described thus: self-association: retained by a 100,000 MW cutoff membrane in diafiltration.

B1: recombinant 20 kDa surface associated protein from S. pneumoniae (Pneumo Protective Protein 1) (other)
chain: MNEVKKMVELKKEAVKDVTSLTKAAPVALAKTKEVLNQAVADLYVAHVALHQVHWYMHGRGFLVWHPKMDEYMEALDGQLDEISERLITLGGSPFSTLTEFLQNSEIEEEAGEYRNVEESLERVLVIYRYLSELFQKGLDVTDEEGDDVTNGIFAGAKTETDKTIWMLAAELGQAPGL
notes: also called r20 kDa; r20kDa
With B1, the binding result was “binds”.

These data come from patent publication US20040052816A1 (Pfizer, published 2004).
